# Source: patent publication US20080103086A1, “METHODS FOR THE TREATMENT OF DISEASES ASSOCIATED WITH THE SECRETION OF HMGB1” (priority 2006, published 2008)
# Columns and labels:
# [1] = tested on: HMGB1 secretion; assay: Inhibition of HMGB1 secretion by Protein Kinase C inhibitor in LPS-treated RAW 264.7 cells (Western blot of supernatants); type: cell-based, Murine; details: 200 ng/mL LPS combined with inhibitor, 16 h, Go 6983 0.1 to 10 μM
# Protocol: RAW 264.7 cells were treated with 200 ng/mL of LPS alone or combined with Gö 6983 (PKC inhibitor) at the indicated concentrations (μM) for 16 h. SB203580 (p38 inhibitor), PD098059 (ERK1/2 inhibitor), Bay 11-7082 (NF-κB inhibitor) were used for comparison. The supernatants were harvested and separated with 12% SDS-PAGE and Western blot was performed to observe the level of HMGB1.
# To analyze the secretion of HMGB1 in the supernatants, culture media were replaced with serum-free OPTI-MEM (Gibco BRL) medium and concentrated with Amicon Centricon filtration (Millipore) after removing cell debris, and Western blot analysis was performed. The cytoplasmic and nuclear fractions from 5×10^6 cells were separated using a digitonin-based method (Bird, C. H. et al, Mol Cell Biol 21:5396-5407 (2001)) to observe the levels of HMGB1 in each fraction. The cells were lysed using 1% Nonidet P-40 buffer containing a protease inhibitor cocktail (Sigma), and the protein concentrations were measured by Bradford assay (Biorad) for the analysis of whole cell lysates (WCLs). The protein samples underwent 12% SDS-PAGE and were transferred to a nitrocellulose membrane. Western blot analysis was performed using rabbit anti-HMGB1 (BD Pharmingen) and HRP-labeled goat anti-rabbit Ig as primary and secondary antibodies, respectively.
# To observe the inhibition of HMGB1 secretion by PKC inhibitor, RAW 264.7 cells were treated with 200 ng/mL of LPS alone or combined with Gö 6983 (Calbiochem), a conventional PKC (α, β, and γ) inhibitor including PKCδ and PKCζ, at the indicated concentrations for 16 h. Other inhibitors of SB203580 (p38 inhibitor, Calbiochem), PD098059 (ERK1/2 inhibitor, Calbiochem), Bay 11-7082 (NF-κB inhibitor, Calbiochem) were included. The supernatants were harvested and separated with 12% SDS-PAGE and Western blot was performed to observe the level of HMGB1.
# [2] = biological target: six His-tagged wild type HMGB1 (UniProt P09429)
# [3] = biological target: T1, Flag-tagged KAP-α1 (human, UniProt P52294 1-538); assay: co-immunoprecipitation from co-transfected RAW 264.7 cells, Western blot (summed up in Example 7)
# T1 construct: Expressed in co-transfected RAW 264.7 cells; used in co-immunoprecipitation; also called FLAG-KAP-α1; not shown: Flag tag of vector pCMV-Tag2 (Stratagene)
# T1 sequence (P52294 whole entry): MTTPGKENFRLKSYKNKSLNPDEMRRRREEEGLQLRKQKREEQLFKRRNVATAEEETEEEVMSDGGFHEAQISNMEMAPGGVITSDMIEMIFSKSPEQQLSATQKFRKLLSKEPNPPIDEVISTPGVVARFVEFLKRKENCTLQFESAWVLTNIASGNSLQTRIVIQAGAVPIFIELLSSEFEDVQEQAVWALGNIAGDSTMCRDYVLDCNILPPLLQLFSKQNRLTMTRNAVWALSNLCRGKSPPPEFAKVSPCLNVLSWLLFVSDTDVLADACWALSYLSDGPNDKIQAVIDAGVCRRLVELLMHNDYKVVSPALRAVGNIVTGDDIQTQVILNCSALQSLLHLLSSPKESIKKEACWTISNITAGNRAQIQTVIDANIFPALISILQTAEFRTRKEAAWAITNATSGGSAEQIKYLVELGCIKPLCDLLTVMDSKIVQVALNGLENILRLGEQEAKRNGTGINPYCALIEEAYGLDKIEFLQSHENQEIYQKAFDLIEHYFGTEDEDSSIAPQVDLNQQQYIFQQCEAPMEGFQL
# Protocol: (§1) To observe the binding of KAP protein to each mutant HMGB1 in the cells, Flag-tagged KAP-α1 and each mutant HMGB1-GFP plasmid were co-transfected into RAW 264.7 cells. Cell homogenates of transfected RAW 264.7 cells were harvested and incubated with mouse anti-Flag (M2, Sigma) and mouse anti-GFP (Santa Cruz) at 4° C. overnight. Immune complexes were collected and the membranes were blotted with anti-Flag and anti-GFP, respectively. The reciprocal experiment was also performed. GST was used as a negative control. And to test the direct binding of HMGB1 to KAP-α1, GST pull-down assay was performed as described above.
# (§2) To observe the effect of phosphorylation in both NLS regions of HMGB1 on the binding to KAP-α1 and on the subcellular localization of HMGB1 in the transfected cells, a number of site-directed mutations in six serines of NLS1 and NLS2 were generated using a HMGB1-GFP fusion construct plasmid (FIG. 5A). Serines 35, 39, 42, 46, 53 within or close to NLS1 and serine 181 at NLS2 were alternatively or totally mutated into alanine or glutamic acid. Substitution with alanine and glutamic acid simulated unphosphorylated and a phosphorylated states, respectively. RAW 264.7 cells were co-transfected with a Flag-tagged KAP-α1 plasmid and each mutant HMGB1-GFP plasmid, and immunoprecipitates using anti-GFP (FIG. 5B) or anti-Flag (FIG. 5C) were analyzed with anti-Flag for KAP-α1 or anti-GFP for HMGB1.
# [4] = biological target: T1, Flag-tagged KAP-α1; assay: co-immunoprecipitation from co-transfected RAW 264.7 cells (anti-GFP and anti-Flag), Western blot
# Protocol: as §1, §2
Molecule,levels of HMGB1 in the culture supernatants (HMGB1 secretion) [1],interaction relative to wild-type [3],other results
Cc1ccc(S(=O)(=O)/C=C/C#N)cc1 [Bay 11-7082],decreased in a concentration-dependent manner,–,–
"COc1ccc2c(c1)c(C1=C(c3c[nH]c4ccccc34)C(=O)NC1=O)cn2CCCN(C)C [Go 6983, 2-[1-(3-dimethylaminopropyl)-5-methoxyindol-3-yl]-3-(1H-indol-3-yl) Maleimide]",decreased to undetectable level,–,levels of HMGB1 in the culture supernatants (HMGB1 secretion) ([1]; listed as Go6983): the secretion of HMGB1 was inhibited
COc1cccc(-c2cc(=O)c3ccccc3o2)c1N [PD098059],no change of HMGB1 secretion,–,–
C[S+]([O-])c1ccc(-c2nc(-c3ccncc3)c(-c3ccc(F)cc3)[nH]2)cc1 (stereo not drawn) [SB203580],no change of HMGB1 secretion,–,–
Cdc2 kinase (New England BioLabs),–,–,"in vitro protein kinase assay ([γ-32P]ATP, autoradiography) [2]: CK II and cdc2 showed no phosphorylation of HMGB1"
casein kinase II (CK II) (New England BioLabs),–,–,"in vitro protein kinase assay ([γ-32P]ATP, autoradiography) [2]: CK II and cdc2 showed no phosphorylation of HMGB1"
"HMGB1 NLS1/2A (HMGB1-GFP mutant) (other, human, UniProt P09429 1-215, looked up, not shown: EGFP of pEGFP-N1 and linker) MGKGDPKKPRGKMSSYAFFVQTCREEHKKKHPDAAVNFAEFAKKCAERWKTMAAKEKGKFEDMAKADKARYEREMKTYIPPKGETKKKFKDPNAPKRPPSAFFLFCSEYRPKIKGEHPGLSIGDVAKKLGEMWNNTAADDKQPYEKKAAKLKEKYEKDIAAYRAKGKPDAAKKGVVKAEKAKKKKEEEEDEEDEEDEEEEEDEEDEDEEEDDDDE",–,≥ 50 % of wild-type,–
"HMGB1 NLS1A (HMGB1-GFP mutant) (other, human, UniProt P09429 1-215, looked up, not shown: EGFP of pEGFP-N1 and linker) MGKGDPKKPRGKMSSYAFFVQTCREEHKKKHPDAAVNFAEFAKKCAERWKTMAAKEKGKFEDMAKADKARYEREMKTYIPPKGETKKKFKDPNAPKRPPSAFFLFCSEYRPKIKGEHPGLSIGDVAKKLGEMWNNTAADDKQPYEKKAAKLKEKYEKDIAAYRAKGKPDAAKKGVVKAEKSKKKKEEEEDEEDEEDEEEEEDEEDEDEEEDDDDE",–,≥ 50 % of wild-type,–
"HMGB1 NLS2A (HMGB1-GFP mutant) (other, human, UniProt P09429 1-215, looked up, not shown: EGFP of pEGFP-N1 and linker) MGKGDPKKPRGKMSSYAFFVQTCREEHKKKHPDASVNFSEFSKKCSERWKTMSAKEKGKFEDMAKADKARYEREMKTYIPPKGETKKKFKDPNAPKRPPSAFFLFCSEYRPKIKGEHPGLSIGDVAKKLGEMWNNTAADDKQPYEKKAAKLKEKYEKDIAAYRAKGKPDAAKKGVVKAEKAKKKKEEEEDEEDEEDEEEEEDEEDEDEEEDDDDE",–,≥ 50 % of wild-type,–
"HMGB1 NLS2E (HMGB1-GFP mutant) (other, human, UniProt P09429 1-215, looked up, not shown: EGFP of pEGFP-N1 and linker) MGKGDPKKPRGKMSSYAFFVQTCREEHKKKHPDASVNFSEFSKKCSERWKTMSAKEKGKFEDMAKADKARYEREMKTYIPPKGETKKKFKDPNAPKRPPSAFFLFCSEYRPKIKGEHPGLSIGDVAKKLGEMWNNTAADDKQPYEKKAAKLKEKYEKDIAAYRAKGKPDAAKKGVVKAEKEKKKKEEEEDEEDEEDEEEEEDEEDEDEEEDDDDE",–,≥ 50 % of wild-type,interaction relative to wild-type [4]: ~50 % of wild-type
"HMGB1 NLS1E (HMGB1-GFP mutant) (other, human, UniProt P09429 1-215, looked up, not shown: EGFP of pEGFP-N1 and linker) MGKGDPKKPRGKMSSYAFFVQTCREEHKKKHPDAEVNFEEFEKKCEERWKTMEAKEKGKFEDMAKADKARYEREMKTYIPPKGETKKKFKDPNAPKRPPSAFFLFCSEYRPKIKGEHPGLSIGDVAKKLGEMWNNTAADDKQPYEKKAAKLKEKYEKDIAAYRAKGKPDAAKKGVVKAEKSKKKKEEEEDEEDEEDEEEEEDEEDEDEEEDDDDE",–,≥ 50 % of wild-type,interaction relative to wild-type [4]: ~50 % of wild-type
"HMGB1 NLS1/2E (HMGB1-GFP mutant) (other, human, UniProt P09429 1-215, looked up, not shown: EGFP of pEGFP-N1 and linker) MGKGDPKKPRGKMSSYAFFVQTCREEHKKKHPDAEVNFEEFEKKCEERWKTMEAKEKGKFEDMAKADKARYEREMKTYIPPKGETKKKFKDPNAPKRPPSAFFLFCSEYRPKIKGEHPGLSIGDVAKKLGEMWNNTAADDKQPYEKKAAKLKEKYEKDIAAYRAKGKPDAAKKGVVKAEKEKKKKEEEEDEEDEEDEEEEEDEEDEDEEEDDDDE",–,–,binding result [4]: no binding
